Measurements from patent US20260234223A1 (LEYDEN LABORATORIES B V, published 2026).

What was measured:
MERS-CoV Spike antigen = target: T1, MERS-CoV Spike antigen (MERS-CoV, UniProt K9N5Q8 18-1291); test: cell-based or functional assay
T1 sequence: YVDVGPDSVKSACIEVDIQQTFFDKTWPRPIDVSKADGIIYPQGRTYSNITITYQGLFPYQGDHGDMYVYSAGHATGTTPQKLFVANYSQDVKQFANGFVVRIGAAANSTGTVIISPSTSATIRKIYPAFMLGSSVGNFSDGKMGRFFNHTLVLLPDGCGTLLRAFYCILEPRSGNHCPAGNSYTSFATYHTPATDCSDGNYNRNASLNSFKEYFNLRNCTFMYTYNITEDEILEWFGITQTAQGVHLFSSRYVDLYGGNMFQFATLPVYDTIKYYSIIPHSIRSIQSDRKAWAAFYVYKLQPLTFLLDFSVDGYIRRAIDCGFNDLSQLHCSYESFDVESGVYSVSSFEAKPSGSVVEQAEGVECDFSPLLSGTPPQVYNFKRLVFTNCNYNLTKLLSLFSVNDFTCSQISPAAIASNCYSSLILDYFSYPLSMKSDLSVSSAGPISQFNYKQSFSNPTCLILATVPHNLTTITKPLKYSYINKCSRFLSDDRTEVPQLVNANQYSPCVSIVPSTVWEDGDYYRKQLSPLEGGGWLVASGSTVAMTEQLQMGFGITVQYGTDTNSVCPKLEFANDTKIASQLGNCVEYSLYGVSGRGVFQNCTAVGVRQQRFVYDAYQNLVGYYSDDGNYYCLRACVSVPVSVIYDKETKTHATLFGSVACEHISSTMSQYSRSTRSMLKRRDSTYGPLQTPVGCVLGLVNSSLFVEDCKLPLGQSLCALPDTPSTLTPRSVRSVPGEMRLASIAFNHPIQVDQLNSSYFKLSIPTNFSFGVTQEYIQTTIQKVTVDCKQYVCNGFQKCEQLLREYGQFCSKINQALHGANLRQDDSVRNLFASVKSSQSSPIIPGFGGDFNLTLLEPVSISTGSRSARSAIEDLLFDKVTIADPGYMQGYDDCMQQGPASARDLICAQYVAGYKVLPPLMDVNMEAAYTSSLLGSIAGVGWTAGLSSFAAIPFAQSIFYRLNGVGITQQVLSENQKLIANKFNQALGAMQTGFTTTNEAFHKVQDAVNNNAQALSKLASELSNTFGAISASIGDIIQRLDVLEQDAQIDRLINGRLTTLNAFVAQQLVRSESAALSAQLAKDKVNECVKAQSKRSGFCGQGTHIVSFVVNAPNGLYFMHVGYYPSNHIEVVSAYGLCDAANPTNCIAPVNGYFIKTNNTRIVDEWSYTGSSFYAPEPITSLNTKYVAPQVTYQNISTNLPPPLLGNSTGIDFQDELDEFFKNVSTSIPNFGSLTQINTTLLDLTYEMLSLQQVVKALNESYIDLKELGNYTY

[1] = target: T2, SARS-CoV-2 Spike antigen (Wuhan, wildtype) (SARS-CoV-2 (Wuhan), UniProt P0DTC2 14-1208); test: cell-based or functional assay
SARS-CoV-1 Spike antigen [2] = target: T3, SARS-CoV-1 Spike antigen (SARS-CoV-1, UniProt P59594 14-1190); test: cell-based or functional assay
hCoV-229E Spike antigen [3] = target: T4, hCoV-229E Spike antigen (human coronavirus 229E, UniProt P15423 16-1110); test: cell-based or functional assay
T4 sequence: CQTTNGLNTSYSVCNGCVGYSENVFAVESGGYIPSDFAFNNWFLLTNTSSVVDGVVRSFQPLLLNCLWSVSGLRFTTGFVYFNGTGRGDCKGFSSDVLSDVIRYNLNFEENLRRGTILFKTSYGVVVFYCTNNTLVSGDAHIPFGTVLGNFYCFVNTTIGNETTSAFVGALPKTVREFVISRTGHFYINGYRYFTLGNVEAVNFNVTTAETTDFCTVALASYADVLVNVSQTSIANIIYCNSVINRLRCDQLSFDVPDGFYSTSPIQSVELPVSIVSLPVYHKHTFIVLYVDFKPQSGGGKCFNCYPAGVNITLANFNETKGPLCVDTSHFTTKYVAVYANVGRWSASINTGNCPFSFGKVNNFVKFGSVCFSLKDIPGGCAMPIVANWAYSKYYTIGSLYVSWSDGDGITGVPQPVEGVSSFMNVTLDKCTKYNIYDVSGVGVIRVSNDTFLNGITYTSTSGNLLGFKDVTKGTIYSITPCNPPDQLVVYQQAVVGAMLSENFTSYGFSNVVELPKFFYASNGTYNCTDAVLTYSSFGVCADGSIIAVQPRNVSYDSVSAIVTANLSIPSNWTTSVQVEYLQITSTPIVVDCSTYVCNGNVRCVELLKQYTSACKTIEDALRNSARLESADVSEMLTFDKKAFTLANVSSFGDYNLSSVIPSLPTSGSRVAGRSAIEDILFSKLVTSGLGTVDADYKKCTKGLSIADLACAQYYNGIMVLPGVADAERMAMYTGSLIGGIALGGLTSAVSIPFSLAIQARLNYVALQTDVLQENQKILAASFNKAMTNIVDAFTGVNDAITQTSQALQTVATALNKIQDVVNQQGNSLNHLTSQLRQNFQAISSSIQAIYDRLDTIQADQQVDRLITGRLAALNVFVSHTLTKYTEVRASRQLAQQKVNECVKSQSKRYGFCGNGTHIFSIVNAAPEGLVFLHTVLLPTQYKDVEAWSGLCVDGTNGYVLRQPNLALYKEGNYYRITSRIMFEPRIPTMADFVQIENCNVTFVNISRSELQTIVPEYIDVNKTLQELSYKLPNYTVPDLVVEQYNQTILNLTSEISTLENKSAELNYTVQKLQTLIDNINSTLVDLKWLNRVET

[4] = target: T2, SARS-CoV-2 Spike antigen (Wuhan, …); test: cell-based or functional assay; remark: listed apart in the source
[5] = target: T5, human coronavirus NL63 Spike antigen (human coronavirus NL63, UniProt Q6Q1S2 19-1291); test: cell-based or functional assay
T5 sequence: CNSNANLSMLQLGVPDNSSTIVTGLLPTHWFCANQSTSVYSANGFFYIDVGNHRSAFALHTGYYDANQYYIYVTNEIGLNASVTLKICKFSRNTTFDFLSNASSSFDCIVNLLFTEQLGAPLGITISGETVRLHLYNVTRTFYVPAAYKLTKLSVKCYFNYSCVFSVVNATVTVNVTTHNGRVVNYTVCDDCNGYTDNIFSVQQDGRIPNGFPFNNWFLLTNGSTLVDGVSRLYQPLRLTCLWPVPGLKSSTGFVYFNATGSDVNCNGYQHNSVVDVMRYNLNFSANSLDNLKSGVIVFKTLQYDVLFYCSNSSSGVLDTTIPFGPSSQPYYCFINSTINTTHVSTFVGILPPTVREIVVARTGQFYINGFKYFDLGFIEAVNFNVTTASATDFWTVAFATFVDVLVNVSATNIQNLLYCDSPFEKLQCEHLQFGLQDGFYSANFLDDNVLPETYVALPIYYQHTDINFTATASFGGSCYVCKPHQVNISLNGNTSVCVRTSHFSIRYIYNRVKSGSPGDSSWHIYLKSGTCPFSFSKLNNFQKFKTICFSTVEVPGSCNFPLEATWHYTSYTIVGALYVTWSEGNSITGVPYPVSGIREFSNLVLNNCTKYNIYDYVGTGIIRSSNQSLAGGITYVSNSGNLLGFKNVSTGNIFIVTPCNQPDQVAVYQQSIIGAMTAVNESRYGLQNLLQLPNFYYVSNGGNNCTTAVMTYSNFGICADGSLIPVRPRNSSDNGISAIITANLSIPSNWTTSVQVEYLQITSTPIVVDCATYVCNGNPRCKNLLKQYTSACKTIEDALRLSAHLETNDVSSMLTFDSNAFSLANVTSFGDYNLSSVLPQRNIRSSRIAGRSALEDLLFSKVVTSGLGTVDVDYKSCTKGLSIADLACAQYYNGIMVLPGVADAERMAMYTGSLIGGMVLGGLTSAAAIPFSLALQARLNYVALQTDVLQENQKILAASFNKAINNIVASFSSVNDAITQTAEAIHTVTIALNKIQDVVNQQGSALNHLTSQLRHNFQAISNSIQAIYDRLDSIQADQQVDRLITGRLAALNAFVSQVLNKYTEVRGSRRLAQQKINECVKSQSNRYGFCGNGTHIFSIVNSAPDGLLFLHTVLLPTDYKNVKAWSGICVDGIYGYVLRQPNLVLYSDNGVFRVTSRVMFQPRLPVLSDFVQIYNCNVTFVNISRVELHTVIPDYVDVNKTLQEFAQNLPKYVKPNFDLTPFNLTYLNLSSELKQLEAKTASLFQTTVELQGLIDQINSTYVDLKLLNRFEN

SARS-CoV-1 Spike antigen [6] = target: T3, SARS-CoV-1 Spike antigen; test: cell-based or functional assay; remark: listed apart in the source
[7] = target: T5, human coronavirus NL63 Spike antigen; test: ELISA on coated spike antigen
hCoV-229E Spike antigen [8] = target: T4, hCoV-229E Spike antigen; test: MSD multiplex binding assay, Coronavirus Panel 3

B1: COV30-14 (antibody, V domains shown)
VH: QVQLVQSGAEVKKPGASVKVSCQTSGYTFTSYYMHWVRQAPGQGLEWMGLITPSGDDTYYAQRFQGRVTMTRDTSTSPTYMELSSLTSEDTAVYYCAKMSRAGGFDVWGQGTLVTVSS
VL: EVVLTQSPGTLSLSPGERATLSCRASQSITGRYLAWYQQKPGQAPRLLMYGESSRVTGIPDRFSGGGSGTDFTLTISRLEPEDFAVYYCQHFASSPPTYTFGQGTKLEIR
notes: also called the antibody according to the invention; the antibody according to invention
Live virus neutralization IC50 (MERS-CoV Spike antigen): 3.68 µg/mL
Live virus neutralization IC50 [1]: 25.4 µg/mL
Live virus neutralization IC50 (SARS-CoV-1 Spike antigen [2]): 4.95 µg/mL
Pseudovirion neutralization IC50 (hCoV-229E Spike antigen [3]): > 250 µg/mL
Pseudovirion neutralization IC50 (geometric mean) [4]: 0.211 µg/mL
Pseudovirion neutralization IC50 [5]: > 250 µg/mL
Pseudovirion neutralization IC50 (geometric mean) (SARS-CoV-1 Spike antigen [6]): 5.89 µg/mL
binding result [7]: no binding (tested: range tested 10.0-0.000002 nM)
binding result (hCoV-229E Spike antigen [8]): no binding (tested: dilution range starting from 555 ng/ml)
